{"source": "patent US11278600B2", "about": "“Human alpha-galactosidase variants” (Codexis, Inc., priority 2014, dated 2022)", "molecules": {"B1": {"name": "Variant 73: GLA variant; K206A relative to SEQ ID NO: 5 (protein)", "chain": "LDNGLARTPTMGWLHWERFMCNLDCQEEPDSCISEKLFMEMAELMVSEGWKDAGYEYLCIDDCWMAPQRDSEGRLQADPQRFPHGIRQLANYVHSKGLKLGIYADVGNKTCAGFPGSFGYYDIDAQTFADWGVDLLKFDGCYCDSLENLADGYKHMSLALNRTGRSIVYSCEWPLYMWPFQKPNYTEIRQYCNHWRNFADIDDSWASIKSILDWTSFNQERIVDVAGPGGWNDPDMLVIGNFGLSWNQQVTQMALWAIMAAPLFMSNDLRHISPQAKALLQDKDVIAINQDPLGKQGYQLRQGDNFEVWERPLSGLAWAVAMINRQEIGGPRSYTIAVASLGKGVACNPACFITQLLPVKRKLGFYEWTSRLRSHINPTGTVLLQLENTMQMSLKDLL", "modifications": "Synthetic Polypeptide sequence of Variant No. 73"}, "B2": {"name": "Variant 218: GLA variant; M322I/E367N/R373K relative to SEQ ID NO: 10 (protein)", "chain": "B1 chain with M322I, E367N, R373K", "modifications": "Synthetic Polypeptide sequence of Variant No. 218"}, "B3": {"name": "Variant 402: GLA variant; polypeptide sequence of SEQ ID NO: 42 (protein)", "chain": "LDNGLARTPTMGWLHWERFMCNLDCQEEPDSCISEKLFMEMAERMVSEGWKDAGYEYLCIDDCWMAPQRDSEGRLQADPQRFPHGIRQLANYVHSKGLKLGIYADVGNKTCAGFPGSFGYYDIDAQTFADWGVDLLKFDGCYCDSLENLADGYKHMSLALNRTGRPIVYSCEWPLYMWPFQKPNYTEIRQYCNHWRNFADIDDSWASIKSILDWTSRNQERIVDVAGPGGWNDPDMLVIGNFGLSWDQQVTQMALWAIMAAPLFMSNDLRHISPQAKALLQDKDVIAINQDPLGKQGYQLRKGDNFEVWERPLSGDAWAVAIINRQEIGGPRSYTIPVASLGKGVACNPACFITQLLPVKRQLGFYNWTSRLKSHINPTGTVLLQLENTMQMSLKDLL", "modifications": "Synthetic Polypeptide sequence of Variant No. 402"}, "B4": {"name": "SP-GLA: 19 amino acid S. cerevisae MFalpha signal peptide fused to the mature form of yeast-optimized GLA (protein)", "chain": "MRFPSIFTAVLFAASSALALDNGLARTPTMGWLHWERFMCNLDCQEEPDSCISEKLFMEMAELMVSEGWKDAGYEYLCIDDCWMAPQRDSEGRLQADPQRFPHGIRQLANYVHSKGLKLGIYADVGNKTCAGFPGSFGYYDIDAQTFADWGVDLLKFDGCYCDSLENLADGYKHMSLALNRTGRSIVYSCEWPLYMWPFQKPNYTEIRQYCNHWRNFADIDDSWKSIKSILDWTSFNQERIVDVAGPGGWNDPDMLVIGNFGLSWNQQVTQMALWAIMAAPLFMSNDLRHISPQAKALLQDKDVIAINQDPLGKQGYQLRQGDNFEVWERPLSGLAWAVAMINRQEIGGPRSYTIAVASLGKGVACNPACFITQLLPVKRKLGFYEWTSRLRSHINPTGTVLLQLENTMQMSLKDLL", "modifications": "Synthetic Polynucleotide sequence of SP-GLA (yCDS)", "notes": "19 amino acid S. cerevisae MFalpha signal peptide fused to the mature form of yeast-optimized GLA"}}, "key": {"GLA": {"biological_target": "T1, GLA (Homo sapiens, UniProt P06280)", "T1 construct": "made in house; host or cells: HEK293 / HEK293T cells, transient transfection; unpurified culture supernatant used", "T1 sequence (P06280 32-429)": "B1 chain with A206K", "test": "Effect of Migalastat on thermostability and activity of GLA (HEK293T supernatants)", "type": "biochemical", "procedure": "GLA variants were challenged at various temperatures in the presence and absence of 1 μM 1-deoxygalactonojirimycin (Migalastat) to assess their overall stability. Supernatants from mammalian cell cultures were normalized to approximately equal activities by dilution with supernatant from a non GLA expressing culture. Diluted supernatants were added to the wells of a 96-well PCR plate (Biorad, HSP-9601). The plates were sealed and incubated at 30-54° C. for 1 h using the gradient program of a thermocycler. For the assay, 20 μL, of challenged supernatant was mixed with 30 μL, of 1 M citrate buffer pH 4.3 and 50 μL, of 4 mM MUGal in McIlvaine buffer pH 4.8. The reactions were mixed briefly and incubated at 37° C. for 90 minutes, prior to quenching with 100 μL, of 1 M sodium carbonate. Hydrolysis was analyzed using a SpectraMax® M2 microplate reader monitoring fluorescence (Ex. 355 nm, Em. 448 nm)."}, "[1]": {"test": "Serum pharmacokinetics of purified GLA variants in rats", "type": "in vivo, Sprague-Dawley rats", "conditions": "rat, intravenous 1 mg/ml at 1 ml/kg; four hours post-administration", "protocol": "Purified GLA variants produced as described in Example 4 were assessed for stability in the serum of live rats. WT GLA (SEQ ID NO:5) or SEQ ID NO:42 at 1 mg/ml were administered intravenously at 1 ml/kg to three naïve jugular vein cannulated Sprague-Dawley rats (7-8 weeks old) each. Prior to administration and at 5, 15, 30, 60, 120, and 240 minutes post-administration, […] was collected from each rat in an EDTA tube and centrifuged at 4° C. and 6000 rpm to generate >80 μL of serum per sample. Samples were frozen and stored on dry ice prior to analysis. For analysis, serum (10 μL) was added to 40 μL of 5 mM MUGal in McIlvaine buffer pH 4.4, and incubated at 37° C. for 1 h. Samples were quenched with 50 μL of 1 M sodium carbonate, diluted 1:100 in 1 M sodium carbonate and analyzed by fluorescence spectroscopy (Ex. 355, Em. 448). Four hours post-administration SEQ ID NO:42 retained 15.3% of maximal activity, while WT GLA retained only 0.66% (See, FIG. 9)."}, "[2]": {"test": "Thermostability of purified GLA variants (Sypro Orange melting)", "type": "physicochemical", "conditions": "purified enzyme 20 μg/ml in 1×PBS, 30 to 75° C. at 0.5° C./min", "protocol": "(§1) GLA variants were purified from mammalian culture supernatant essentially as known in the art (See, Yasuda et al., Prot. Exp. Pur., 37, 499-506 [2004]). Concanavalin A resin (Sigma Aldrich) was equilibrated with 0.1 M sodium acetate, 0.1 M NaCl, 1 mM MgCl2, CaCl2, and MnCl2 pH 6.0 (Con A binding buffer). Supernatant was diluted 1:1 with binding buffer and loaded onto the column. The column was washed with 15 volumes of Concanavalin A binding buffer, and samples were eluted by the addition of Concanavalin A binding buffer including 0.9 M methyl-α-D-mannopyranoside and 0.9 M methyl-α-D-glucopyranoside. Eluted protein was concentrated and buffer exchanged three times using a Centricon® Plus-20 filtration unit with a 10 kDa molecular weight cut off (Millipore) into ThioGal binding buffer (25 mM citrate-phosphate, 0.1 M NaCl, pH 4.8). Buffer exchanged samples were loaded onto a Immobilized-D-galactose resin (Pierce) equilibrated with ThioGal binding buffer. The resin was washed with six volumes of ThioGal binding buffer and eluted with 25 mM citrate phosphate, 0.1 M NaCl, 0.1 M D-galactose, pH 5.5. […]\nThe thermostability of WT GLA (SEQ ID NO:5) and SEQ ID NO:42 were determined to assess their overall stability. […] The plates were heated from 30 to 75° C. at 0.5° C./min on a RT-PCR machine and Sypro Orange fluorescence was monitored. […]"}, "[3]": {"test": "Thermostability of GLA variants expressed in HEK293T cells", "type": "biochemical", "conditions": "HEK293T supernatants; 30-54° C. for 1 h; residual MUGal activity"}, "[4]": {"test": "Activity on alternative substrate NBD-GB3 (TLC)", "type": "biochemical", "conditions": "HEK293T culture supernatant, pH 4.8, 37° C., 1 h", "protocol": "To confirm that improved activity in MUGal hydrolysis corresponded to more native substrates, mammalian cell-expressed GLA variants were assayed using N-Dodecanoyl-NBD-ceramide trihexoside (NBD-GB3) as substrate. HEK293T culture supernatant (10 μL), 100 mM sodium citrate pH 4.8 (80 μL), and NBD-GB3 (0.1 mg/ml) in 10% ethanol (10 μL) were added to microcentrifuge tubes. Samples were inverted to mix, and incubated at 37° C. for 1 h. The reaction was quenched via addition of 50 μL, methanol, diluted with 100 μL, chloroform, vortexed and the organic layer was isolated for analysis. The organic phase (10 μL) was spotted onto a silica plate and analyzed by thin layer chromatography (chloroform:methanol:water, 100:42:6), detecting the starting material and product using a 365 nm UV lamp."}, "[5]": {"test": "pH stability of purified GLA variants over time", "type": "biochemical", "conditions": "purified enzyme; McIlvaine buffer pH 4.1 or 7.5, 0-24 h at 37° C.", "protocol": "as §1, with “buffer.” for “buffer. The resin was washed with six volumes of ThioGal binding buffer and eluted with 25 mM citrate phosphate, 0.1 M NaCl, 0.1 M D-galactose, pH 5.5.”\nTo confirm that purified GLA variants show the desired pH stability observed after expression in yeast, WT GLA (SEQ ID NO:5) and SEQ ID NO:42 were incubated in acidic or basic buffers and analyzed for residual activity. […] Samples were quenched with 100 μL, of 1 M sodium carbonate, diluted 1:4 in 1 M sodium carbonate and analyzed by fluorescence spectroscopy (Ex. 355, Em. 448)."}, "[6]": {"test": "Optimization of signal peptide for secreted expression of GLA by S. cerevisiae", "type": "biochemical", "description": "Two strategies for secreted GLA expression were utilized, using the yeast MFa signal peptide (MF-SP) or a longer leader sequence of 83 amino acids (MF-leader) to drive secretion of a yeast codon-optimized mature human GLA. Clones were expressed from a pYT-72 vector in S. cerevisiae strain INVSc1. Both approaches provided supernatants with measurable activity on the fluorogenic substrate 4-methylumbelliferyl α-D-galactopyranoside (4-MuGal). However, the construct with the yeast MFa signal peptide provided 3-fold higher activities and was used as the starting sequence for directed evolution.\nS. cerevisiae transformed with Mfleader-GLA (SEQ ID NO:7), SP-GLA (SEQ ID NO:36) or a vector control were grown in HTP as described in Example 2. Cultures were grown for 48-120 h prior to harvest of the supernatant and analysis (n=6) as described in Example 2. FIG. 1 provides a graph showing the relative activity of different GLA constructs in S. cerevisiae after 2-5 days of culturing."}}, "note": "Positions count from the first letter of the chain named. Names and notes keep the numbering of the source."}
{"molecule": "OC[C@H]1NC[C@H](O)[C@@H](O)[C@H]1O", "note": "[Migalastat, 1-deoxygalactonojirimycin]", "values": [{"measurement": "reduction of GLA activity in the Migalastat treated sample", "setting": "GLA; 0.2 μM final concentration in the assay", "value": "~60", "unit": "%"}, {"measurement": "increase of Tm of GLA by addition of Migalastat", "setting": "GLA; 1 μM Migalastat during temperature challenge", "value": 5.5, "unit": "°C"}]}
{"molecule": "WT GLA: wild-type mature human alpha galactosidase A (GLA), polypeptide sequence of SEQ ID NO: 5 [reference compound]", "values": [{"measurement": "GLA activity retained in serum, % of maximal activity", "setting": "[1]", "value": 0.66, "unit": "%"}, {"measurement": "melting temperature", "setting": "[2]", "value": 37, "unit": "°C"}]}
{"molecule": "B1", "values": [{"measurement": "increase of Tm of the enzyme", "setting": "[3]", "value": 2, "unit": "°C"}]}
{"molecule": "B2", "values": [{"measurement": "increase of Tm of the enzyme", "setting": "[3]", "value": 4, "unit": "°C"}, {"measurement": "conversion of NBD-GB3", "setting": "[4]", "value": "Significant conversion"}]}
{"molecule": "B3", "values": [{"measurement": "GLA activity retained in serum, % of maximal activity", "setting": "[1]", "value": 15.3, "unit": "%"}, {"measurement": "melting temperature", "setting": "[2]", "value": 55, "unit": "°C"}, {"measurement": "stability (residual activity) under acid and basic challenge compared to WT GLA", "setting": "[5]", "value": "considerably more stable"}]}
{"molecule": "B4", "values": [{"measurement": "level of active enzyme produced in S. cerevisiae", "setting": "[6]; 2-5 days of culturing, saturated after three days of growth", "value": "high level of active enzyme"}, {"measurement": "supernatant activity on 4-MuGal, fold higher than MF-leader construct", "setting": "[6]; S. cerevisiae INVSc1 supernatant, versus MF-leader construct", "value": 3, "unit": "fold"}]}
